The values below come from patent publication US12077763B2, “RNA-based control of powdery mildew” (Greenlight Biosciences, Inc., priority 2021, dated 2024).

B1: GS1868: dsRNA trigger SEQ ID NO 177; gene target Glycine-rich RNA-binding protein 4, mitochondrial (nucleic acid)
chain: TGCCCCATGAGAGACCGCCAATAAAGAGTTTAGGCATTCTGTATGTTAATTTTTATCCTCGCGAACCTGGTATAAAGTCTTAATCTCCGCGTGCATCCTTGAATAAAATGTGACAACGCCATCGAGTTTGAGAGGGAGAGAGAAAGTGGATACGGAACAGTTAAAGAAAAGTACATCGGGATATAACAAAACCTCCGTGTAGCATACAAATGAGGGGACGATGAATATATTTGTTTGCTTGGTGAACAGGCCGGGGAGGATTGGGATGAAGTAATGTTAGTACACACTGTCAGAGAACTAACGAACTTCTAGTGAGTTGCTCAAGAAGAGCAAAGTGCTGCGTTTATAGGGAGACCTGATGAACTTTATTAATTCGGTTTGGAGGAGCAATTTTTATAATGGACTGGAGTAACCGATCAGTCAATTTCGTGATAGAACTATTCTTCCGCAAATTGAGACGCAAAAGCTCTCTGATTGTGATGACAAGAGTTTTGCGGGTCTCAATAAAGGAATTGATGTTT
B2: GS1876: dsRNA trigger SEQ ID NO 210; gene target Uncharacterized transcriptional regulatory protein YKL222C (nucleic acid)
chain: CGCGTTCATAAAATATATCTTCATAATCAGCGTATTTAGGTGAAAGTGTAGTAGCCAATGTCCACATGGCATAGCATAGACAAATTGGAGGACGGGTCTGAATTGGACGTTCCAAAGACATGTAAAACCGGGCTTGATGTATGATGGGCATTGAAGGGTGATAGAGAGTGAAGTAGATATGATATAATTCTTTAATCATATAATCAGGCGGTAATGGTTCTTGAAGACCTAAGCTTAGTAGCTCTTTATTGATATTTGATGTAGTTTCTTTAGGCATCTGGGAGAAGCCTGAAATAGGTGGCGACGTTTCAATGGATGTAAGAAGAGGCCTACCATCAATTGCCAAATTCAAATCTATACCCATATTCCAATTTCTTTCGAGCCGGGGAGCTGCAGCATCGGGACTTATGATATCGCATTTTCCTTCCGAGTTGAGTCGAGTCTCCAATTGAGCTAGCCTAGCTTCAATTTCTTTTTCTTT
B3: GS1869: dsRNA trigger SEQ ID NO 166; gene target General alpha-glucoside permease (nucleic acid)
chain: CGGCCCCATCGAACCATACTTTTTGCAAAAAGATGGCATCGCATAGAATTGAGCAAGCAAGAGATTATCGTAACCTTCCATAATAATACCAGTTGAGATAGCAACACTATAAACAGCAGCTGGCCACCACAATTTTAGAGCTTCGTTGACAGTCATATTCTTTTCAAGCTCTTCCGCACGATGGGCACCCTGAGTGGTATAGTACTGACTCTTTTCCAAAGAAGGAGCTCGGCCAATGTCCTCCTCATGCTTGGCAGTAGTTTCAAGAATGGACTTGTCGATAATAGACATTTTGAGAGTTGAGAAGTCAAAAAAATTTTGAAGTAAAGATCAGACTAAAGGTGAGTTTGGGGATTTAAAAAAAGAATATTAGGGTAAGGTTATGATTGAGTTCACAAGGGAATAGGTTTTCTAGAAAGAGCATGAAGGAAAGACATAAAACCTGAGAGTGATATTTGGATAATTTTGAATTCCATCGTCAACAGCTTCGGGAGACAAGTCTTTATAGAATTCTGAT
B4: GS1874: dsRNA trigger SEQ ID NO 120; gene target eka-like_protein (nucleic acid)
chain: CTAGAGCAGCCACGTGTAGCATGAAACCCATGACAACGTTTGCATTGTTGTATTGGTTGGCATGGTTTGTACAGTATAGCGACTCCTGATTCGTCGAATAGTCGGAATCCGGGTCATGGAGCTTGTTCTCGGGAAAAATGTGCCAGCCAAGAGCGATGTGGAGCACCAGAACGAGTCTTACCATGTACCCTAACCATCTTAGGCGCAAAGTTAGTGACTTTGATAATTTCGGCTACAAGGTTAGTATCGTCGACTGTCACACTTCCACTAGAAGTTTGACGGGCAACGGGAACAGTTGCAATACGATATGTAATAAGATCAGACGCCGGTTCTAGCTTGGCACCCTGAAAAGATATTCTATCACTGTCATTTAGTAGCTTTTGCCTTATCTCCTTTTCTTTGATAGTAAGTGCGAAGCCAGTGGGGGTTCGAGCGATGAGCGTCACATCAGATGGTACACAATTTAGATTTTTGCACAATATTT
B5: ES45: dsRNA trigger SEQ ID NO 109; gene target Hypotethical effector (nucleic acid)
DNA: CTCACCTTGGCATCTACGAAGCCGACAGGAAGGTGGTGGCTACTATGGCCAACCATCGAATGGTGATGGAAGTGTGTATCCACCTTCATCTGGTACAGGTGGCTTTCTATCGCCAACTGCTACGAGCGGTTATCCGTCTGCAACTGGAACTGGCGGCTATTCATCTCCATCGGGCACCGGTGGCTACCCGTCTGCAACAGTTGAAAAAGACAATATTTCGAAGTTCCCGAGAGCTTTCGTATCCGGCAATGACTGCATCACGTCGAATTTCTACGATCCAAGACGAAAATAGTTTGTTTTTTTGCTGTTGGCGTGGAGTCTAGCTGTTGTGTACCCGAACCCTATTCGGATCATCAAATAGGATTGTAAGTTGGTTCATCATTTTATGAACAGATTCAAATTGTATTACCCCATTCTTAATCAATACCATGCAGGTGTGACTGACAGTC
B6: GS1888: dsRNA trigger SEQ ID NO 182; gene target Succinate dehydrogenase [ubiquinone] iron-sulfur subunit, mitochondrial (nucleic acid)
chain: TTTTAGGCGTTACAATCTTCAATAAATAACTAACATCGATAACAGGTCGTATACCAGCAGATACTAGTAAAGAAACGAAGATTTACCCCCTTCCTCATACCTATGTAGTTAAGGACATCGTCCCAGATCTCACACAGTTTTACAAACAGTATAAGTCCATCAAGCCATACCTTCAACGTACATCTCCCTCACCCAATGGTAAAGAATATCTACAAAGTAAGGAGGACAGAAAAAAACTCGATGGGTTATATGAGTGCATTTTGTGCGCATGCTGTTCTACTTCATGCCCCTCTTACTGGTGGAACTCTGAAGAATACTTGGGCCCAGCTGTTCTGATGCAAAGCTATAGATGGTTAGCAGATTCTCGAGATGAAAAGACAGCTGAGCGAAAGAGTGCTCTGGATAATAGTATGAGTCTCTATCGATGTCATACCATATTAAATTGTT
B7: GS1870: dsRNA trigger SEQ ID NO 170; gene target Myosin-24 (nucleic acid)
chain: ATTTCTCATTCGCGTAGTTGATACAGAATTGCTCGAATGAGTTTTTTGCAAAGTGTTCGAATCCATAAATATCTAAAACTCCTATAAATGACTTGACACGGCTTAAGACTTCTTCAGCAGCCAACGCATAATTGATATTTTCAACAAGCCAGTCAAAAAGACTTGAATAAACAAATTTAGCGACCGAATCTCGAACAACAATGGCTTGCTGTTGGCTTAAGCTACTAACGACTTTATCTCCCCGGGTAATTAATTGCTTCTTGACTGTCCATCTAGCAAATTCCACCGGATCAATGCCCAAAATTGAAGCAGCAATCTCTAGAGAAGGCTCATTAGGAGTAAGTGAAGATTCATTTCTTGTGGCAGTAATCTTAACATTTCCAAGATGTAGTAATGCTGCAAGTATTTTAAATATTTCGGTCTGCTGATCCTGTTTGACTCCAATTGTTGCTAGGGACTTTTTGAGTGCTTCGAATTCGGCTTTATCATCAACTCCATCTATTGAAGGTGA
B8: GS1884: dsRNA trigger SEQ ID NO 187; gene target Peptidyl-prolyl cis-trans isomerase ssp-1 (nucleic acid)
chain: TAATACTTCATCTGGAAGCCATCGAGTTTGCTTTTTATTATCTGAATTTTTGAGGCATTAAACTACAATACCTATTAAGGTTCAATTCAACGTTACAGTATGTAGCAGTAAATATCATTTTTGGTATAAGAATAAAAATATTCAAATTTTTACCGAAAAAAATGAAGCAGTAAGTCATATTTCTGGGTCAAGTCTCTGTAAGTCTTGCGCATCAAGCTTGCAATTGAGACTCCAAATGTGACTGGATATGTATATATATATATATATGGTGTTATAGTTGTCAAATCGAATCTATTCTATTCTTTGAATCAGATGTAGACCAGATGCTGTTTCTATGATTTGACTCATTTCTCCAACTTTGAGTTCGAATGCAGCATCTTCGAATTCTTTCTGCATATCACCTCTACCAAAGAAACCAAGGTCACCTTGTTTTTTAGCACTATTGCAATCAGACTC
B9: GS1873: dsRNA trigger SEQ ID NO 153; gene target Probable serine/threonine-protein kinase fhkC (nucleic acid)
chain: CACATCGAGATATAAAACCCGAAAATATACTTCTCATGAATAGAACTCCTACTATTAAATTAGGTGATTTTGGCTTGGCCAAGATCGTTGGTGAGGAATCATTCACAACAAGCTTATGTGGAACACCCAGTTATGTTGCACCAGAGATCCTTGAAGACTCAGATAATCGGCGTTACAATCGAGCTGTTGATATTTGGGCTCTAGGTGTTGTTCTTTACATTTGCCTCTGTGGCTTCCCGCCATTCTCTGATGAATTGACCAGTAATGATTATCCTTACACTCTTGTCCAGCAGATTAAAATTGGTCAGTTCGACTTCCCATCGCCATATTGGGATAATATAGGAGACTCAGCTCTTGACCTCATTGACAAAATGTTAACAGTAGATGTTAACAAACGCATTAATATTGATCAATGTCTTGAACATCCATGGCTAACTCAAAGAGAATCAACGACTTTGCCAGGTGATTACTCTGAAGTTCTTGACGAACTT

The test system of one data set is E. necator. Briefly: Leaf disc assay, dry inoculum (settling tower), decrease in disease severity / hyphal growth (Example 2). The note with it: decrease in disease severity (hyphal growth) relative to untreated control; time point 1 (untreated control hyphal growth ≥50%); value ± SE.
For B1, the “% decrease =/− SE TP1” value is recorded as 1 ± 6%. For B2, the “% decrease =/− SE TP1” value stood at 20 ± 6%. The same measure, in the same setting: under B3 stands 21 ± 7%; under B4, 25 ± 4%; under B5, 41 ± 5%. Consider B6, for which the “% decrease =/− SE TP1” value is recorded as 19 ± 6%. Still for that read-out and setting: under B7 stands 11 ± 5%; under B8, 12 ± 4%. Still for that read-out and setting: then B9, with 4 ± 4%.

Staying with this data set, now noted: decrease in disease severity (hyphal growth) relative to untreated control; time point 2; value ± SE.
Turning to B2, the “% decrease =/− SE TP2” value came out at 10 ± 8%. As for B3, the “% decrease =/− SE TP2” value is 17 ± 7%. Turning to B4, the “% decrease =/− SE TP2” value was 14 ± 5%. Same read-out and setting: under B5 stands 31 ± 7%; under B6, 19 ± 6%.

B7: the “% decrease =/− SE TP2” value was 13 ± 8%.
